Measured values reported in the Immune Epitope Database (IEDB).

Columns and labels:
Assay in all cases: IEDB peptide-MHC binding, cellular MHC/competitive/fluorescence; ≥ and ≤ were set here for values at or beyond the usual limits of such assays
HLA-A*02:06 = target: HLA-A*02:06
HLA-A*02:01 = target: HLA-A*02:01
HLA-A*02:02 = target: HLA-A*02:02
HLA-A*02:03 = target: HLA-A*02:03
HLA-A*68:02 = target: HLA-A*68:02
[1] = source organism: Vaccinia virus WR
[2] = source organism: Influenza A virus
[3] = source organism: Mammarenavirus whitewaterense
[4] = source organism: Mammarenavirus machupoense
[5] = source organism: Mammarenavirus guanaritoense

Sequence | IC50 (HLA-A*02:06; [1]) [µM] | IC50 (HLA-A*02:01; [1]) [µM] | IC50 (HLA-A*02:02; [1]) [µM] | IC50 (HLA-A*02:03; [1]) [µM] | IC50 (HLA-A*68:02; [1]) [µM] | other results
AINKCVDIFT | 38.5 | 15.9 | 25.3 | 26.4 | 39 | 
RLEVIGLTT | ≥ 50 | 28.8 | 20 | 13.9 | 13.1 | 
VMDKNHAIFT | ≥ 70 | 8.7 | 18.7 | 11.5 | 13 | 
VTGSYNLVDT | ≥ 70 | ≥ 70 | ≥ 70 | ≥ 70 | ≥ 70 | 
NTTIEKEI |  |  |  |  |  | IC50 (HLA-A*02:06; [2]): ≥ 70 µM; IC50 (HLA-A*02:01; [2]): 50.7 µM; IC50 (HLA-A*02:02; [2]): ≥ 70 µM; IC50 (HLA-A*02:03; [2]): ≥ 70 µM; IC50 (HLA-A*68:02; [2]): ≥ 70 µM
YCHGILLKDV |  |  |  |  |  | IC50 (HLA-A*02:06; [3]): 15 µM; IC50 (HLA-A*02:01; [3]): 11.4 µM; IC50 (HLA-A*02:02; [3]): ≥ 70 µM; IC50 (HLA-A*02:03; [3]): 13 µM; IC50 (HLA-A*68:02; [3]): 57.6 µM
GIDTSNNIA | 25.2 | 17.3 | 49.7 | ≥ 70 | ≥ 70 | 
YNCKCCWFA |  |  |  |  |  | IC50 (HLA-A*02:06; [4]): ≥ 70 µM; IC50 (HLA-A*02:01; [4]): 42.9 µM; IC50 (HLA-A*02:02; [4]): 16.1 µM; IC50 (HLA-A*02:03; [4]): 31.9 µM; IC50 (HLA-A*68:02; [4]): 52.9 µM
DVKVLAARL | 10 | 12 | 6.23 | 10.7 | 7.95 | 
DLDKVYEIL | 53.6 | 29.7 | 19.6 | 26.3 | ≥ 70 | 
ELVMDKNHAI | ≥ 70 | ≥ 70 | 14.2 | ≥ 70 | 19.5 | 
SVDEEGCGPL | 12.7 | 32.1 | 14.8 | 38.7 | 35.3 | 
GLQSSDDFA |  |  |  |  |  | IC50 (HLA-A*02:06; [2]): ≥ 70 µM; IC50 (HLA-A*02:01; [2]): 7.88 µM; IC50 (HLA-A*02:02; [2]): 11.4 µM; IC50 (HLA-A*02:03; [2]): 18.5 µM; IC50 (HLA-A*68:02; [2]): ≥ 70 µM
YVIGLLPQS |  |  |  |  |  | IC50 (HLA-A*02:06; [5]): 48.1 µM; IC50 (HLA-A*02:01; [5]): ≥ 70 µM; IC50 (HLA-A*02:02; [5]): ≥ 70 µM; IC50 (HLA-A*02:03; [5]): ≥ 70 µM; IC50 (HLA-A*68:02; [5]): ≥ 70 µM
PAEMLANI |  |  |  |  |  | IC50 (HLA-A*02:06; [2]): ≥ 70 µM; IC50 (HLA-A*02:01; [2]): ≥ 70 µM; IC50 (HLA-A*02:02; [2]): ≥ 70 µM; IC50 (HLA-A*02:03; [2]): ≥ 70 µM; IC50 (HLA-A*68:02; [2]): ≥ 70 µM
KAMHDKKIDI | 26.4 | 50.6 | ≥ 70 | 46.2 | ≥ 70 | 
LIQYRQQLEL | 52.9 | ≥ 70 | 32.8 | 19.5 | ≥ 70 | 
ELTNKKYRCM | ≥ 70 | ≥ 70 | ≥ 70 | ≥ 70 | 13.8 | 
YTLIYRQLT | 17.6 | 28.5 | 6.41 | 9.42 | 7.86 | 
PTIEDDKIVT | ≥ 70 | ≥ 70 | 13.8 | 20.6 | ≥ 70 | 
YVPSAEDNYL | ≥ 70 | ≥ 70 | ≥ 70 | ≥ 70 | ≥ 70 | 
TIDNIVTSLA | ≥ 70 | ≥ 70 | ≥ 70 | ≥ 70 | ≥ 70 | 
PTPKKMNIVT | ≥ 70 | ≥ 70 | 65.8 | 55.7 | ≥ 70 | 
AAFEDLRV |  |  |  |  |  | IC50 (HLA-A*02:06; [2]): 18.4 µM; IC50 (HLA-A*02:01; [2]): 31.4 µM; IC50 (HLA-A*02:02; [2]): 28.8 µM; IC50 (HLA-A*02:03; [2]): 7.32 µM; IC50 (HLA-A*68:02; [2]): ≥ 70 µM
LTNKKYRCMA | ≥ 70 | ≥ 70 | 34.8 | 5.4 | 16.6 | 
AIKQYGDIDL | ≥ 70 | 45.8 | 23.4 | 46.4 | 38.7 | 
LTDVEKRIL | ≥ 70 | 27 | 27.4 | 28.5 | ≥ 70 | 

Sequence | IC50 (HLA-A*02:06; [1]) [µM] | IC50 (HLA-A*02:01; [1]) [µM] | IC50 (HLA-A*02:02; [1]) [µM] | IC50 (HLA-A*02:03; [1]) [µM] | IC50 (HLA-A*68:02; [1]) [µM] | other results
PVETLFGSYI | ≥ 70 | ≥ 70 | 13.7 | 11.8 | 7.16 | 
TIESAKTKI | 51.4 | 15.2 | 16.3 | 54.1 | 52.6 | 
GVEVRYIDI | 10.2 | 16.4 | 12 | 45.3 | ≥ 70 | 
PANINDKQIM | 10.9 | 32.3 | 49.5 | 43.1 | ≥ 70 | 
KTEHCDDFMT | 11.6 | 7.51 | 7.82 | 37.7 | ≥ 70 | 
TQFNFNGHT | 10 | ≥ 70 | 43.4 | 14.4 | 52.2 | 
PACVYGPA |  |  |  |  |  | IC50 (HLA-A*02:06; [2]): ≥ 70 µM; IC50 (HLA-A*02:01; [2]): ≥ 70 µM; IC50 (HLA-A*02:02; [2]): 14.2 µM; IC50 (HLA-A*02:03; [2]): ≥ 70 µM; IC50 (HLA-A*68:02; [2]): ≥ 70 µM
IASAPQQLCT | 8.31 | 36.5 | 53.2 | ≥ 70 | 16.4 | 
SIENKHQRRL | 53.6 | ≥ 70 | 17 | 21.1 | ≥ 70 | 
IAYERMCNIL |  |  |  |  |  | IC50 (HLA-A*02:06; [2]): 7.91 µM; IC50 (HLA-A*02:01; [2]): ≥ 70 µM; IC50 (HLA-A*02:02; [2]): 24 µM; IC50 (HLA-A*02:03; [2]): 16.5 µM; IC50 (HLA-A*68:02; [2]): 24.6 µM
NLPFDKTTIMA |  |  |  |  |  | IC50 (HLA-A*02:06; [2]): ≥ 70 µM; IC50 (HLA-A*02:01; [2]): 25 µM; IC50 (HLA-A*02:02; [2]): 7.7 µM; IC50 (HLA-A*02:03; [2]): 8.43 µM; IC50 (HLA-A*68:02; [2]): 11 µM
ALSYSAGA |  |  |  |  |  | IC50 (HLA-A*02:06; [2]): ≥ 70 µM; IC50 (HLA-A*02:01; [2]): 39.3 µM; IC50 (HLA-A*02:02; [2]): 16.9 µM; IC50 (HLA-A*02:03; [2]): 10.7 µM; IC50 (HLA-A*68:02; [2]): ≥ 70 µM
STQQNKLVI | ≥ 70 | 41.1 | 53 | 14.4 | 25.7 | 
PAHKSQLV |  |  |  |  |  | IC50 (HLA-A*02:06; [2]): ≥ 70 µM; IC50 (HLA-A*02:01; [2]): ≥ 70 µM; IC50 (HLA-A*02:02; [2]): ≥ 70 µM; IC50 (HLA-A*02:03; [2]): ≥ 70 µM; IC50 (HLA-A*68:02; [2]): ≥ 70 µM
PMIIGEPIIV | ≥ 70 | 26.3 | ≥ 70 | 8.84 | ≥ 70 | 
PLIRHENRMVL |  |  |  |  |  | IC50 (HLA-A*02:06; [2]): ≥ 70 µM; IC50 (HLA-A*02:01; [2]): 28.8 µM; IC50 (HLA-A*02:02; [2]): ≥ 70 µM; IC50 (HLA-A*02:03; [2]): 16.9 µM; IC50 (HLA-A*68:02; [2]): ≥ 70 µM
PTEMVDVSM | 40.2 | 47.4 | 10.6 | 41.3 | 52.2 | 
AAFEDLRL |  |  |  |  |  | IC50 (HLA-A*02:06; [2]): 46.9 µM; IC50 (HLA-A*02:01; [2]): ≥ 70 µM; IC50 (HLA-A*02:02; [2]): 17.5 µM; IC50 (HLA-A*02:03; [2]): 48.9 µM; IC50 (HLA-A*68:02; [2]): 59.8 µM
YIKDLKHAT | 39.4 | 8.08 | 18.5 | ≥ 70 | ≥ 70 | 
AARLKRSAT | 63.8 | ≥ 70 | 12.5 | 10.5 | ≥ 70 | 
DVGCLLTDTI | 10 | 6.84 | 10.7 | 15.6 | 27.4 | 
AVSVYGAIT | 14.2 | 7.23 | 11.4 | 9.62 | 6.28 | 
AATKRYPGVM | 46.8 | 67.2 | 20.1 | 47.9 | ≥ 70 | 
PLKDVERLQM | 37.4 | 45.5 | 6.16 | 44 | ≥ 70 | 
AIKSNNHLT | ≥ 70 | 27.2 | 50.7 | 28.6 | 46.1 | 
PTRTWKVLSI | ≥ 70 | ≥ 70 | 41.9 | 15.1 | 42 | 
